The record followed here is publication PMC11407090, “Kinetic and in silico structural characterization of norbelladine O-methyltransferase of Amaryllidaceae alkaloids biosynthesis” (The Journal of Biological Chemistry, 2024).

Substrate in data set [1]: O=Cc1ccc(O)c(O)c1
In words: LC-MS/MS methyltransferase assay, nonlinear regression. Type of data set: biochemical, Narcissus papyraceus. The conditions noted are these: SAM as methyl donor, Zn^2+, product vanillin (3-O-methylation, major product), optimized condition pH 7.4, 45 °C. The source says:
(§1) LC-MS/MS methyltransferase assay, nonlinear regression on NpOMT

Substrate in data set [2]: Oc1ccc(CCNCc2ccc(O)c(O)c2)cc1
The data set is described as above. The conditions noted are these: SAM as methyl donor, Mg^2+, product 4'-O-methylnorbelladine, optimized condition pH 7.4, 45 °C, 30 min. The class given is biochemical, Narcissus papyraceus.
Text: as §1

B1: NpOMT (Narcissus papyraceus) (protein)
chain: MGASQDDYALIHKNILHSEELLKYILETSAYPREHEQLKGLREVTEKHEWSSALVPADEGLFLSMLLKLMNAKRTIEIGVYTGYSLLTTALALPEDGKITAIDVNKSFFEIGLPFIQKAGVEHKINFIESEALPVLDQMVQEMKEEDLYDYAFVDADKSNYANYHERLVKLVRVGGAILYDNTLWYGSVAYPEYPGLHPEEEVARLSFRQLNTLLAADPRVEISQVSIGDGVTICRRLY
notes: homodimer only modelled
Regarding B1, in data set [1], the Km came to 491 ± 51 µM, the Vmax came out at 19.1 µM/min, the kcat was 0.0637 ± 0.0025 s⁻¹ and the kcat/Km was found to be 130 M⁻¹ s⁻¹. In data set [2], the Km was 169 ± 19 µM, the Vmax worked out at 10.9 µM/min, the kcat stood at 0.0362 ± 0.004 s⁻¹ and the kcat/Km is 214 M⁻¹ s⁻¹.
